According to patent US20090004190A1, “Rage Fusion Proteins And Methods Of Use” (priority 2006, published 2009):
“And” between values parts separate entries of the source, which are not always exact repeats. Equal values may be shown once.

Tests used:
[1] = test system: Zucker diabetic rats, restenosis following vascular injury; test: Diabetic rat model of restenosis (balloon injury of left common carotid artery); format: in vivo; details: for Luminal area / Medial area: IP, 21 days
Procedure: In these experiments, balloon injury of left common carotid artery was performed in Zucker diabetic and nondiabetic rats using standard procedure. […] A maintenance dose was delivered every other day until day 7 after injury (i.e., at day 1, 3, 5 and 7 after injury). The maintenance dose was high=1 mg/animal for one group, or low=0.3 mg/animal for the second group. To measure vascular smooth muscle cell (VSMC) proliferation, animals were sacrificed at 4 days and 21 days after injury.
For the measurement of cell proliferation, 4 day animals received intraperitoneal injection of bromodeoxyuridine (BrDdU) 50 mg/kg at 18, 12, and 2 hours before euthanasia. After sacrifice, the entire left and right carotid arteries were harvested. Specimens were stored in Histochoice for at least 24 hours before embedding. Assessment of VSMC proliferation was performed using mouse anti-BrdU monoclonal antibody. A fluorescence labeled goat anti-mouse secondary antibody was applied. The number of BrdU-positive nuclei per section were counted by two observers blinded to the treatment regimens.
The remaining rats were sacrificed at 21 days for morphometric analysis. Morphometric analyses were performed by an observer blinded to the study groups, using computerized digital microscopic planimetry software Image-Pro Plus on serial sections, ([…]) carotid arteries stained by Van Gieson staining. All data were expressed as mean±SD. Statistical analysis was performed with use of SPSS software. Continuous variables were compared using unpaired t tests. A values of P≦0.05 was considered to be statistically significant.

[2] = test system: allogeneic rejection of transplanted islet cells; test: Allogeneic islet transplantation (BALB/c islets in streptozotocin-diabetic B6 mice); format: in vivo, mouse; details: for day of graft loss, each animal: blood glucose exceeded 250 mg/dl; for day of graft loss, Mean: n 8
Procedure: C57BL/6J (6-8 week old) (B6) mice were made diabetic by a single intravenous injection of streptozotocin (STZ) (Sigma Chemical Co., St. Louis, Mo.) at 200 mg/kg. BALB/cJ (6-8 week old) (BALB) mice served as donors for islet transplantation, thus providing an allo-mismatch for islet transplants.
Mice (BALB/c) were anesthetized with ketamine HCl/xylazine HCl solution (Sigma, St. Louis Mo.). After intraductal injection of 3 ml of cold Hank's balanced salt solution (HBSS, Gibco, Grand Island N.Y.) containing 1.5 mg/ml of collagenase P (Roche Diagnostics, Branchburg, N.J.), pancreata were surgically procured and digested at 37° C. for 20 mins. Islets were washed with HBSS and purified by discontinuous gradient centrifugation using Polysucrose 400 (Cellgro, Herndon Va.) having four different densities (26%, 23%, 20%, and 11%). The tissue fragments at the interface of the 20% and 23% layers were collected, washed and resuspended in HBSS. Individual islets, free of attached acinar, vascular and ductal tissues were handpicked under an inverted microscope, yielding highly purified islets for transplantation.
Streptozotocin-induced diabetic C57BL/6 (B6) mice received islet grafts within 2 days of the diagnosis of diabetes. BALB/cJ (6-8 week old) (BALB) mice served as donors for allogeneic islet transplantation. For transplantation, 500-600 freshly isolated islets (i.e., approximately 550 islet equivalents) from donor mice were picked up with an infusion set and transplanted into the subcapular space of the right kidney of a recipient.
Test compounds were administered as soon as the islets were transplanted; administration continued for about 60 days, depending upon how the control animal was faring.
(§1) Islet graft function was monitored by serial blood glucose measurements daily for the first 2 weeks after islet transplantation, followed by every other day thereafter. Reversal of diabetes was defined as blood a glucose level of less than 200 mg/dl on two consecutive measurements. Graft loss was determined when blood glucose exceeded 250 mg/dl on two consecutive measurements.

[3] = test system: recurrent diabetes in NOD/LtJ mice with syngeneic islet transplants; test: Syngeneic islet transplantation in diabetic NOD mice; format: in vivo, mouse; details: 300 ug LD + 100 ug qod ip
From the text: Spontaneous autoimmune non-obese diabetic mice (NOD/LtJ) (12-25 weeks old) served as recipients for islet cells, while young pre-diabetic NOD/LtJ mice (6-7 weeks old) served as donors in syngeneic islet transplantation. Islets for transplantation were isolated as described above in Section A (Allogeneic Islet Transplantation).
Diabetic NOD/LtJ mice received islet grafts within 2 days of the diagnosis of diabetes. 500-600 freshly isolated islets (approximately 550 islet equivalents) from donor mice were picked up with an infusion set and transplanted into the subcapular space of the right kidney.
Test compounds were administered as soon as the islets were transplanted and continued for approximately 8 weeks.
as §1, with “blood” for “blood a”, “glucose” for “glucose level of”, “Percentage graft” for “Graft”

[4] = High dose 1.0 mg/animal qod × 4, loading dose 3 mg/animal
[5] = Low dose 0.3 mg/animal qod × 4, loading dose 3 mg/animal
[6] = 300 ug + 30 ug qod ip (Group 3)
[7] = 300 ug LD + 100 ug qod ip (Group 1)

B1: TTP-4000: four domain RAGE fusion protein: human RAGE V and C1 domains with interdomain linkers (to residue 251) fused to human IgG1 CH2 and CH3; SEQ ID NO: 34/56 (protein, listed as Homo sapiens)
chain: QNITARIGEPLVLKCKGAPKKPPQRLEWKLNTGRTEAWKVLSPQGGGPWDSVARVLPNGSLFLPAVGIQDEGIFRCQAMNRNGKETKSNYRVRVYQIPGKPEIVDSASELTAGVPNKVGTCVSEGSYPAGTLSWHLDGKPLVPNEKGVSVKEQTRRHPETGLFTLQSELMVTPARGGDPRPTFSCSFSPGLPRHRALRTAPIQPRVWEPVPLEEVQLVVEPEGGAVAPPSVFLFPPKPKDTLMISRTPEVTCVVVDVSHEDPEVKFNWYVDGVEVHNAKTKPREEQYNSTYRVVSVLTVLHQDWLNGKEYKCKVSNKALPAPIEKTISKAKGQPREPQVYTLPPSRDELTKNQVSLTCLVKGFYPSDIAVEWESNGQPENNYKTTPPVLDSDGSFFLYSKLTVDKSRWQQGNVFSCSVMHEALHNHYTQKSLSLSPGK
vascular smooth muscle cell proliferation (BrdU-positive nuclei) ([1]; 4 days after injury, dose-responsive, FIG. 13B): significantly reduced | Luminal area [1, 4]: 0.16 ± 0.02 mm^2 | Medial area [1, 4]: 0.11 ± 0.01 mm^2 | Luminal area [1, 5]: 0.18 ± 0.04 mm^2 | Medial area [1, 5]: 0.11 ± 0.02 mm^2 | day of graft loss, each animal [2, 6]: 13 day and 14 day and 12 day (2×) and 11 day (2×) and 8 day (2×) | day of graft loss, Mean [2, 6]: 11.125 days | day of graft loss, each animal [2, 7]: 14 day (2×) and 16 day (2×) and 13 day (2×) and 12 day and 15 day | day of graft loss, Mean [2, 7]: 14.125 days | day of graft loss, Mean [3]: 39.875 days | day of graft loss, each animal ([3]; blood glucose exceeded 250 mg/dl): 38 day (2×) and 40 day and 43 day and 36 day and 45 day and 44 day and 35 day
